The data set addresses T1, GST-PIF5 bHLH domain (Arabidopsis thaliana, UniProt Q84LH8 259-310).
T1 sequence: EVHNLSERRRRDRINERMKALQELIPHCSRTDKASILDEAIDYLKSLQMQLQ
The data set is described as follows: EMSA; Beyotime EMSA kit binding buffer (composition not stated), 20 min, room temperature, 5% native PAGE; 50x and 100x unlabeled competitor. The note with it: protein: recombinant, tags: N-terminal GST (pGEX-4T-1), chain copies: 2, label: biotin. (A gel shift assay detects complexes by their altered migration in electrophoresis.)

B1: MIR156F probe (E05/E06) (dsDNA)
DNA 1: AACAAACCCCATTACGACACGTGACAGGCTGGGCATTCTCCACATGCTTTCTTGCCGAAA
DNA 2: TTTCGGCAAGAAAGCATGTGGAGAATGCCCAGCCTGTCACGTGTCGTAATGGGGTTTGTT
For B1, the binding result (blunt) was “binds”.

B2: MIR156F mutant probe (E07/E08) (dsDNA)
DNA 1: AACAAACCCCATTACGATGACCTACAGGCTGGGCATTCTCCACATGCTTTCTTGCCGAAA
DNA 2: TTTCGGCAAGAAAGCATGTGGAGAATGCCCAGCCTGTTGACCTTCGTAATGGGGTTTGTT
Regarding B2, the binding result (60 nt strands) was “no binding”.

B3: MIR156E probe (E01/E02) (dsDNA)
DNA 1: CATATTCGTTCCCACCACGTGTCTCCTCAGGGGCTGACCACGTGATTCCCACGCCGAAAG
DNA 2: CTTTCGGCGTGGGAATCACGTGGTCAGCCCCTGAGGAGACACGTGGTGGGAACGAATATG
In the case of B3, where the note is “blunt”, the binding result was “binds”.

B4: MIR156E mutant probe (E03/E04) (dsDNA)
DNA 1: CATATTCGTTCCCACTGACCTTCTCCTCAGGGGCTGACTGACCTATTCCCACGCCGAAAG
DNA 2: CTTTCGGCGTGGGAATAGGTCAGTCAGCCCCTGAGGAGAAGGTCAGTGGGAACGAATATG
With B4, the binding result (blunt) is on record as “no binding”.

The record behind these values is PMC5570905, “Phytochrome-interacting factors directly suppress MIR156 expression to enhance shade-avoidance syndrome in Arabidopsis”.
